Experimental data: patent US5990092

Target: GATA-6 (Homo sapiens) (UniProt Q92908)
Test: cell_activity
Details: luciferase transactivation in p53-/- MEFs

GATA-6 (Homo sapiens), sequence (Q92908 147-595): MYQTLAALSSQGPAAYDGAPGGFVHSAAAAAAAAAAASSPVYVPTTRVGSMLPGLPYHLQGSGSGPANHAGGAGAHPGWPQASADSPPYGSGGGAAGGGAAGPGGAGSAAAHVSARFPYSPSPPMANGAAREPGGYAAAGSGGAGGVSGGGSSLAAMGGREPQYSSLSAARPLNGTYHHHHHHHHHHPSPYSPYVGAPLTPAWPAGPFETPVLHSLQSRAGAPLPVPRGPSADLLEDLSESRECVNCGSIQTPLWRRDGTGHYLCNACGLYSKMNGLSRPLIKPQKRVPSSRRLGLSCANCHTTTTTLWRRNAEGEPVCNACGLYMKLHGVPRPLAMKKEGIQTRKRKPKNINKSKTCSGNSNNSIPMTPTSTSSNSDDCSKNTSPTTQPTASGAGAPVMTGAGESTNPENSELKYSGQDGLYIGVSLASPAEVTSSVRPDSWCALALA

p21 promoter 3.8 kbp
activity: 3.7 fold
